Laboratory results reported in the RNAGym collection of RNA variant scans (doi:10.1021/acssynbio.7b00057).

B1: Pistol ribozyme (parent)
chain: GGGUCGUUGUUCCAUAAUCGCGUGGAUAUGGCACGCAAGUUUCUACCGGGCACCGUAAAUGUCCGACUGGAGCCGUUCGGGCGGCUAUAAACAGACCUCAGGCCCGAAGCGUGGCGGCACCUGCCGCCGGUGGUAAAAAAGAUCGGAAGAGCACACGUCU

Variants of: B1
Experiment: aptazyme ON/OFF ratio, guanine; higher = stronger switching; co-transcriptional cleavage with and without guanine

| Variant | aptazyme ON/OFF ratio |
| --- | --- |
| U7A G9U U11A C12G C13U | 1.25 |
| U8A U10A U11G C13U | 1.13 |
| U7A U8C U10C U11A C12G | 1.28 |
| U7G U8C G9U U11G C12A C13G | 1.35 |
| U7C U8C G9C U10A U11A C12U C13G | 1.2 |
| G9U U10A C12A C13G | 0.84 |
| U7C G9C U10C U11G C12A | 1.05 |
| U7G U8A G9U U10C U11C C12U | 1.06 |
| U7A U8G G9U U10G U11C C12A C13G | 1.13 |
| U7G U8A G9U U10G C13U | 1.21 |
| U7C U8A G9A U10A U11G C12U | 1.14 |
| U8G G9U U10G U11C C12U C13A | 1.03 |
| U7C U8G G9C U10A C12G C13G | 1.2 |
| U7C G9U U10A U11A C12U | 1.36 |
| U8A G9C C13U | 1.17 |
| U7G U8C G9A U10C U11G C12A C13G | 1.08 |
| U7C U8C G9A U10C U11C C12U C13U | 1.32 |
| U7G U8A G9U U10A U11C C13A | 1.04 |
| U8A U10A U11A C12G C13G | 1.18 |
| U7C U8G U10G C12G C13U | 1.29 |
| U7A G9A U10G U11A C12G C13U | 1.17 |

| Variant | aptazyme ON/OFF ratio |
| --- | --- |
| U7A G9A U10G U11A C12G C13G | 1.31 |
| U7A G9U C12A C13G | 1.21 |
| U7C U8G G9U U11A C12A C13U | 1.21 |
| U8C G9U U10C U11A C12U C13U | 1.2 |
| U7G U8A G9U C12G C13U | 1.17 |
| U7G U8A G9U C12G C13G | 1.07 |
| U8A G9A U10G C13A | 1.29 |
| U7C U8A G9A U10A U11C C13G | 1.03 |
| U7C U10G U11G C12U C13A | 1.13 |
| U8C G9U U10A U11A C12G | 1.32 |
| U8G G9A U11A C12U | 1.43 |
| U7G G9A U10A C13G | 1.06 |
| U7A U8G U10G U11A C12A C13A | 1.55 |
| U7A G9C U11C C12A C13U | 1.08 |
| U7A U8A U10A U11G C12A C13G | 1.07 |
| U7C G9C U10G U11G C12G C13A | 1.08 |
| U7A U8G U10G C13G | 1.14 |
| U8G G9U U10C U11A C12G C13U | 1.16 |
| U7A U8C G9C U11G C13G | 1.13 |
| U7G U10C U11A C12G C13U | 1.06 |
| U7C U8C G9U U11A C12A C13G | 1.1 |

| Variant | aptazyme ON/OFF ratio |
| --- | --- |
| G9A U10A U11C C12G C13U | 1.41 |
| U8C G9C U11A C12G C13G | 1.15 |
| G9C U11A C12U C13A | 1.27 |
| U8G G9A U10G U11C C12U C13G | 1.2 |
| G9U U10C C12U | 1.71 |
| U7A U8C G9A U10A U11A C12A C13A | 1.11 |
| U7C U8A U10A U11A C12G C13U | 1.23 |
| U7C U8G G9A U11C C12A | 1.1 |
| U7C U10C U11G C12G C13A | 1.19 |
| U8A G9C U10G U11C C12U | 1.05 |
| U8A G9C U10A C12A C13G | 1.14 |
| U7A U8A G9U U10A C12G C13U | 1.3 |
| U7A U8A G9A U10C U11A C13A | 1.11 |
| U7G U8A G9C U10C U11A | 0.986 |
| U7G U10C C12A C13U | 1.12 |
| U7G U8A G9C U10G U11A C13G | 1.02 |
| U7C U10C U11A C13G | 1.21 |
| U7C U8A G9U U10G C12A C13A | 1.19 |
| U7G U8A G9U U10A C12U C13A | 1.07 |
| U7A G9A U10C U11C C13U | 1.02 |
| U7A G9C U11A C12U | 1.09 |

| Variant | aptazyme ON/OFF ratio |
| --- | --- |
| U7C U8A G9U U10G U11A C12U C13A | 1.12 |
| U7G G9C U10G U11G C12A C13U | 1.12 |
| U7A U8A G9A U10C C12U | 1.23 |
| U7G U8G G9U U10C U11G C12G C13A | 1.16 |
| G9U U10G U11C C12U C13A | 1.14 |
| U8A U10A U11C C12U C13G | 1.09 |
| U7G U8A G9U U10A U11C C12U C13A | 1.07 |
| U7A U8C G9U U10C U11G C12G | 1.06 |
| U7C U8G G9A U10C U11C C13U | 1.02 |
| U7G U8G U10G U11G C12G C13G | 1.18 |
| U7G G9C U10G U11C C12A C13G | 1.23 |
| U7G U8C G9A U10A U11A C13U | 1.21 |
| U7C U8A U11C C12G C13G | 1.26 |
| U7A G9C U10G U11C C12G C13A | 1.11 |
| U7A U8C G9C U10A U11A C12U C13G | 1.08 |
| U7G U8C G9U U11A C12U C13U | 1.41 |
| U8A G9A U10C U11C C12U C13G | 1.05 |
| U7G U8A G9A U10C U11C C12G C13A | 1.09 |
| U7C G9A U11A C12G | 1.28 |
| U7A U8A G9C C12G C13G | 1.17 |
